Laboratory results from patent publication US20240317851A1 (LANOVA MEDICINES, published 2024).

What was measured:
human Claudin 6 [1] = molecular target: T1, human Claudin 6 (human, UniProt P56747 1-220); test: flow cytometry, HEK293/H_CLDN6 cells, Ab titrated from 100 nM
T1 construct: whole, on cells; also called CLDN6
T1 sequence (looked up): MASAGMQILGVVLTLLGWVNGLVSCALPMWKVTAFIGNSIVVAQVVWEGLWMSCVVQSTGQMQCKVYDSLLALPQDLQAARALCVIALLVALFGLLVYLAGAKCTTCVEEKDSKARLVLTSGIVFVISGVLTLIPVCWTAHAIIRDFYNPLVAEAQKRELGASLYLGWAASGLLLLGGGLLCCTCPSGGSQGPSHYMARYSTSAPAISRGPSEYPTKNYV
Procedure: In this example, cell based binding of chimeric Abs on human CLDN6 & CLND9 over-expressing cell line were assessed using flow cytometry.
Briefly, the cells were incubated with chimeric Abs (from 100 nM, 6-fold dilution, 8 points) for 60 minutes at 4° C. Cells were pelleted and washed twice with 2% FBS/PBS buffer, and stained with fluorescent conjugated secondary antibody at 4° C. for 30 minutes. After that the cells were washed twice and resuspended in 80 μL of 2% FBS/PBS buffer. Fluorescent signal of binding was detected using Agilent. The EC50 was calculated using the GraphPad software (LaJolla, CA).

human Claudin 6 [2] = molecular target: T1, human Claudin 6; test: cell-based or functional assay
human Claudin 6 [3] = molecular target: T1, human Claudin 6; test: flow cytometry, OVCAR3 cells (endogenous CLDN6), Ab titrated from 100 nM
Procedure: In this example, FACS binding of chimeric Abs to Ovcar3 and Ov90 cells with claudin 6 endogenous expression were assessed using flow cytometry.
Claudin 6 endogenous expression cell line were incubated with chimeric Abs (from 100 nM, 6-fold dilution, 8 points) for 60 minutes at 4° C. Cells were pelleted and washed twice with 2% FBS/PBS buffer, and stained with fluorescent conjugated secondary antibody at 4° C. for 30 minutes. After that the cells were washed twice and resuspended in 80 μL of 2% FBS/PBS buffer. Fluorescent signal of binding was detected using Agilent. The EC50 was calculated using the GraphPad software.

human Claudin 6 [4] = molecular target: T1, human Claudin 6; test: cell-based or functional assay; remark: listed apart in the source
human Claudin 3 = molecular target: T2, human Claudin 3 (human, UniProt O15551 1-220); test: flow cytometry, CHOK1/CLDN3 cells
T2 construct: whole, on cells; also called CLDN3
T2 sequence (looked up): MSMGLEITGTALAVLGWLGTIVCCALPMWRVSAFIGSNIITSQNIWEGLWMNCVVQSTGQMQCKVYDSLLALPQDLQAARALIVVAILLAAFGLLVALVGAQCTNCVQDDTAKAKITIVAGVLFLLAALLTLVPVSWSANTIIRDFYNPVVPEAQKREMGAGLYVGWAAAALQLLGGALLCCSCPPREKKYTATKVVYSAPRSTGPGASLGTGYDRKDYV
Procedure: In this example, cell based binding of chimeric antibody 97-C10E1-2 toward human CLDN3 overexpression cell line were assessed using flow cytometry.
Briefly, cells were incubated with chimeric antibody (from 100 nM, 6 folds dilution, 8 points). After incubation at 4° C. for 60 minutes. Cells were pelleted and washed twice with 2% FBS/PBS buffer, and stained with fluorescent conjugated secondary antibody at 4° C. for 30 minutes. After that the cells were washed twice and resuspended in 80 μL of 2% FBS/PBS buffer. Fluorescent signal of binding was detected using Agilent. The EC50 was calculated using the GraphPad Software.

B1: 97-C10E1-2 (antibody, V domains shown)
VH: EVQLQQSGPELVKPGASMKISCKASGYAFTGYTMNWVKQSHGKNLEWIGLSNPYNGGTIYNQKFKGKATLTVDKSSSTAYMELLSLTSEDSAVYYCARNYYYGSSYAYYYAMDYWGQGTSVTVSS
VL: QAVVTQESALTTSPGETVTLTCRSSTGAVTTSNYANWVQEKPDHLFTGLIGGTNNRAPGVPARFSGSLIGDKAALTITGAQTEDEAIYFCALWYSNHWVFGGGTKLTVL
notes: Tested as chimeric antibody; also called chimeric antibody 97-C10E1-2
Top MFI (human Claudin 6 [1]): 321000 | Inhibition Rate (%) (HEK293/H_CLDN6) (human Claudin 6 [2]): 83.4% | Top MFI (human Claudin 6 [3]): 2590 | internalization Top RLU (HEK293/H_CLDN6) (human Claudin 6 [4]): 829000 RLU | binding result (human Claudin 3): no binding (tested: 100 nM (highest concentration tested))
